Measurements: the DeepSol protein solubility set

test: soluble on expression in E. coli; label from the status in PepcDB or PDB records

Sequence	soluble on expression in E. coli
MGSDKIHHHHHHMSESYYGLLDEEKVFKDPVHRYIHVRDELIWALIGTKEFQRLRRVRQLGTTFLTFHGAEHTRFNHSLGVYEITRRIIEVFQGRPYWNEEERLLTLCAALLHDIGHGPFSHSFEKVFDTDHEEWTRRMIVGDTEIHNVLLKMGDDFPQKVADVIEKTYPNKLVTSIISSQIDADRMDYLQRDAYYTGVSYGHFDMERILRVMRPMEDQVVIKQSGMHAVEDYIMSRYQMYWQVYFHPVTRSAEVILSKVFKRVKDLYEQGYKFKQEPKHFYSLFEGNMSLDDYLRLDESITMYYFQIWQEEEDRILSDLCVRFINRQLFKYIEFNPNLQMNDWPRLQQLFAQAEIDPEYYLVVDSSSDLPYDFYRPGEEEERLPIHLIMPNGKLRELSRESDVVEAISGKKRTDHKLYFPMDCLTDQSDHKEIKQEILSLLFK	not soluble
MPQPAARVTDMHVCPMVTPGLPPVPHVGGPLLPPGSPSVFIGGLPAATLGTLALCSGPVDVVIMGSVKVLICGKPAARMGDICAHGGTIVSGYPQVLIG	not soluble
MEDVWLQAQSNLAKVLTHQTFTTWIEPIRFAGAHKNTLLLEAPNQFIRDRVRESYLPMILESVRSLTDSHFQVELQVAARQQEKTAKSPRKSHTEDELGPVESEKCAPAEFSTNLNAKYTFDTFVCGGSNQFAHAAALSVANNPAGKYNPLFIYGGVGLGKTHLLTAIGNQVLTKNRKARVCFYTSEKFMNELINCLRYQKMEQFRNKFRKMDLLLIDDIQFIAGKERTQEEFFHTFNALYESHKQIVVTSDKFPKDIPGLEERLRSRFEWGLIADIQPPDTETKVAILSKKADSDGIRLPDDVALFLASSASTNVRELEGMLIRLGAVASLTGKNITLDMAREVLKDIIVDKTKEVTVEMIQKYVADHFNIKVAELKSDKRLKALVVPRQIAIYLCRDLTKASYPDIGEKFGGKDHSTIIHSVKKVDKLLSQDFELKSTIETLRKGLLNLEHHHHHH	soluble
DYMRFALKGKQGKGMKMPEGVVSSNGEYYMKERMVTDPGLTLDNSGIAPQPSRRAKEDDGGAAEGGRQAADDEVRQDMQETPVLPSNTGSKQQQLDSLF	not soluble
MGKLVEGVWHDVWYDTKANGGKFVREDAGFRDWIKNDSEAVFQPESGRYHLYVSLACPWAHRTLIFRKLKGLEPHIDVTVVCPDMLSQGWQMGLPEPLFGHTRMHQIYTQAKPDYTGRVTVPVLWDKKTNTIVSNESSEIIRMFNSAFNDLTGNHDDYYPEPLRGVIDEWNDYIYPNVNNGVYRCGFATSQEAYEEAFESLFSALDKIDAHLATHRYLAGNKITEADWRLFTTLVRFDAVYVGHFKCNKQRIADYVNIQGYLKELYQIDGIADTTDFYHVKRHYYFSHTGINPTQVVPKGPDLDFSSPHQREMIG	soluble
MVEVHACSPGCRHHLGGAGWGDAPLVRLGYNKEARAKKFPYLKALLERPLVFDGAMGTELQKRDLTPEDYGGEAYFGCPEVLNRTRPEVVREIHLAYLEAGAEVIETNTFGALRHVLAEYGLEEAAEELAFLGARIAREAADPHGAFVAGALGPGTKLVSLGQISWDALYRAYKEAARGLLKGGVDLILLETAQDILQVRCAVLAVREAMAEVGREVPLQVQVTFEATGTMLVGTDEQAALAALESLPVDVVGMNCATGPDLMDSKVRYFAEHSTRFVSCLPNAGLPRNEGGRVVYDLTPEELAKWHLKFVAEYGVNAVGGCCGTGPEHIRKVAEAVKGLAPKPRPESFPPQVASLYQAVSLKQEASLFLVGERLNATGSKRFREMLFARDLEGILALAREQVEEGAHALDLSVAWTGRDELEDLRWLLPHLATALTVPVMVDSTSPEAMELALKYLPGRVLLNSANLEDGLERFDRVASLAKAHGAALVVLAIDEKGMAKTREEKVRVALRMYERLTEHHGLRPEDLLFDLLTFPITQGDEESRPLAKETLLAMEELRERLPGVGFVLGVSNVSFGLKPRARRVLNSVFLDEARKRGLTAAIVDAGKILPISQIPEEAYALALDLIYDRRKEGFDPLLAFMAYFEAHKEDPGKREDAFLALPLLERLKRRVVEGRKQGLEADLEEALKAGHKPLDLINGPLLAGMKEVGDLFGAGKMQLPFVLQAAEVMKRAVAYLEPHMEKKGEGKGTLVLATVKGDVHDIGKNLVDIILSNNGYRVVNLGIKVPIEEILKAVEAHKPHAVGMSGLLVKSTLVMKENLEYMRDRGYTLPVILGGAALTRSYVEELRAIYPNVYYAEDAFEGLRLMEELTGHAPPELTRKAPARPKREAPKVAPRARPVGEAPAVPRPPFFGVRVEEGLDLATIAHYVNKLALYRGQWGYSRKGLSREAWQALVEREAEPVFQRLLKEAMAEGWLEPKVLYGFFPVAREGEELLVFSPETGEVLERFRFPRQKGGGLSLVDYFRPRFAAPLGDEADWMPKEAFRAGARDVLGVQLVTMGEAPSRKAQALFASGAYQDYLFVHGFSVEMTEALAEYWHKRMRQMWGIAHQDATEIQKLFQQGYQGARYSFGYPACPDLADQAKLDRLMGFHRVGVRLTENFQLEPEHATSALVVHHPEARYFSVD	soluble
MAAKQGESDPERKETRQKVDDDRKHEIEAAIVRIMKSRKKMQHNVLVAEVTQQLKARFLPSPVVIKKRIEGLIEREYLARTPEDRKVYTYVA	soluble
MDTEPIQIDSDDSFDAGAPTSSHTMDRKSIIEKYQKLKEESKKLDDLAVEVRSLFMICKQMEECYTKRIDRIVATYGEIRYLHDGTILLLVTIHNITNQPMIDWVISINPTSIFPNSSSSCCQTINVGSLLPGIRKTFQCQLTCKDPPVLLQLSLLRTYQLGGIVKCFKVKLDPILVTAWNQAQRVERKNMETSFTSTIRLPNSLINLLSGSPDTVISVPQVFKSILNVPNVQEDHIVIKMSSAFVVGATGAVGSELVKLLAESTKFSKVVVLARRPVDGATGDKLIQKTVDFDKLEENAEDIQGVDVAFCALGTTRGKSGADGFYKVDHDYVMSAAKMAKENGVKQFVLVSSVGADASSRFLYPKTKGEVEKEIGELNFEKFVIMRPGLIEAKRPEFRIGEFLGKIVTAPLGLFSNRFSSSATAIAQAMINATQTEETGNQIWNNSKIVEESKKYTA	not soluble
MAHHHHHHMSSSVVIVGDSICGGDGDQKLSTSHDEVYLRGFNTFAGNNPSDRALLHEGAGEVVAAISGHIEVTERVISVKGLLPRYQPEIGDVVVGRIVEVSGNKWHVDVNSTQTAIMLLSSVTEPGGILRRRGRGDELGMRQIFDQDDLVAAEVQRISPDGVMSLHTRAADKYGRLSGLGILVSVRPSLVKRAKHQFVELADYSTQLIIGMNGNIWICSVQPSTSDAEETEHATDARQNVARVANCIKALGAAQVQIHPASIEASVAASLDAGLSVFDVSLPKNRDALVARVADMVGMQHRRPTGGGACARTLV	not soluble
MRFQYQALLNEHQSQLDRFSSHIVATLDKYAHIPHLISKDKELVDALLSAQNSAQIDITNRYLEQVNEVIQAADTYLIDRFGNTIASSNWNLDRSFIGRNFAWRPYFYLSIAGQKSQYFALGSTSGQRGYYYAYPVIYAAEILGVIVVKMDLSAIEQGWQNKSSYFVATDDHQVVFMSSQPAWLFHSVADLSPAQLNDIRQSQQYLDSPIPSLGWQGDLQAEQSEWRKPEKHWLQDDYIVSSRPLPELALTIRVLSPKIE	soluble
MSLDATYVETSTSKLGCRSAVADQVEKFQFGQYECDAPHKLYNSLIDNAKKFIESPDFILLGGDLIAHGLNVTKQMLIDNFNNITNPIEKKYPNTKIYITLGNNDFQKNYGSFDTDLTDFETVFEIFGKWMNTEQAETFKKGGYYYADFPSSNFRFLFLNTVIYSRKRTFNETLTDPYDQFAWIRKMYKDAVQKGYKVGIALHIPPGVVYTDNKVGWNLKYINTFAEIMKECDFSFIISGHSHTDMILPLYTPNSDTDNILYSLSAPSVSPTHYNNPGFRHYLLDQEIIKDFIQYYADIMLNPSELNWEIEYKFSEAYKTQNITRNSINDAVKWIRSTGEGQWRYRERVYSREGHHHHHH	soluble
MSFRHFKRRLDTSSADESSSADEEHPDQNVSLTEKSASLSHSDLGGEILNGTGKNRTPNDGQESNESDGSPESDESPESEESSDNSDSSDSDDMRPLPRPLFMKKKANNLQKATKIDQPWNAQDDARVLQTKKENMIKNIDKANQVAKNYETMKLRLNTNYSTNEELIKQCLLLDDNDEVDSEKERQKWFERQNERKQKHRRIQLAKQRESEEYEAKRFEAMQKGKDGNTKYDVILDKEKEKLDHKKQRSAEKVEKSHNNNRYKITRTKNVEFGDLGKNSRDYEETEYSVI	soluble
MSLYPAEHKEVMVQLMNQGNRSSLMQAWIDDGDTSLPPEKIQVPFMLTPPVAKIGANSGQQVKIKIMPNKLPTNKESIFYLNVLDIPPNSPEQEGKNALKFAMQNRIKLFYRPAGIAPVNKVTFKKLLVNRSGNGLVIKNDSANWVTISDVKANNVKVNYETIMIAPLESQSVNVKSNNANNWHLTIIDDHGNYISDKEGHHHHHH	not soluble
YPNASPLLGSSWGGLIHLYTATARNSYHLQIHKNGHVDGAPHQTIYSALMIRSEDAGFVVITGVMSRRYLCMDFRGNIFGSHYFDPENCRFQHQTLENGYDVYHSPQYHFLVSLGRAKRAFLPGMNPPPYSQFLSRRNEIPLIHFNTPIPRRHTR	soluble
MDFHIRKATNSDAEAIQHVATTSWHHTYQDLIPSDVQDDFLKRFYNVETLHNRISATPFAVLEQADKVIGFANFIELEKGKSELAAFYLLPEVTQRGLGTELLEVGMTLFHVPLPMFVNVEKGNETAIHFYKAKGFVQVEEFTEDFYGYPLETIRFNLNHHAFEEE	not soluble
MAGGLIRGKLIAIIGDEDTVTGFLLGGIGELNKNRKPNFLVVEKETSVTEIEETFRSFLNRDDIGIILINQFIAEMIRHAIDAHTISIPAVLEIPSKEHPYDATKDSILRRAKGMFTVDDLR	soluble
MPKIILVSHSKEIASGTKSLLKQMAGDVDIIPIGGLPDGSIGTSFDIIQEVLTKLEDDALCFYDIGSSEMNVDMAIEMYDGNHRVLKVDAPIVEGSFIAAVKLSIGGSIDDALAEIKQSFLEHHHHHH	soluble
MSLATKVTLKDVAARAGVSYQTVSKVLNGEMQVAPETMERIQAAVQELGYRPNRIARNMRAGRSFMIGYSWTQTEPGQVNHILDQFLSSMVREAGAVNYFVLPFPFSEDRSQIDIYRDLIRSGNVDGFVLSSINYNDPRVQFLLKQKFPFVAFGRSNPDWDFAWVDIDGTAGTRQAVEYLIGRGHRRIAILAWPEDSRVGNDRLQGYLEAMQTAQLPIETGYILRGEGTFEVGRAMTLHLLDLSPERRPTAIMTLNDTMAIGAMAAARERGLTIGTDLAIIGFDDAPMVQYLFPPLSSVRQPIAEAGRKCIELLVAIVEGREPEQKHILLQPSLIIRASEGHHHHHH	soluble
ISSEQDAINNRFLPTTDRFSERGSYGNFNYAAYQPEAAIGGEKNPLIVWLHGIGEVGTDINIPLLASNVARLTEDPIQSHFTSTGSGGQKGAYVLVPQSSIPWSQNQTASLMALIKAYVASHPDIDSRRIYLAGVSNGGGMTLDMGVAYPNYFAALVPIAASYSNQLTDNQITAAALKALKGQPMWLIHTRTDKTISADSSVLPFYKELLQAGAQNKWLSYYETNVGKHHSGVTYNGHWSWIYFLNDQV	not soluble
MSQMSPGQARVVDPILSTHARGYRQSTLIGKKLFPVAPVAQYGGKILTFGKEAFRLYNTKRAPGANTKRIDFGYEGDPYSIVPSALEAKVPRELMRDASQVPGIDLGARSVNTVLRIMALAHEHECAQIALDPAKYNADHKVKLVGSARWTSPDSDPTKDVETAKEAIADSIGMEPNRLMLSRKALSACKYHPKLIERVKYTRAESITIDMLKALWEVEEIVVGTARVATGANDSFGDVWGPDVWLGYVSDNPDPSVEEPSFGYTYQIEGHPLVEVPYWDNNAKSWIYGVSDDNTPALSGMLAGYLIEDAGLPAALEHHHHHH	soluble
